Test [1] has as its target SARS-CoV-2刺突S1-His重组蛋白 (Sino公司，货号:40591-V08H) (SARS-CoV-2 (2019-nCoV), UniProt P0DTC2 16-685).
The target of test [2] is SARS-CoV-2刺突蛋白S1的RBD结构域重组蛋白 (Sino公司，货号40592-V05H) (SARS-CoV-2 (2019-nCoV), UniProt P0DTC2 319-541).

EC50 data for one molecule are collected here from patent publication CN111732654A (WUHAN INST OF BIOLOGICAL PRODUCTS CO LTD, dated 2020).

B1: 单克隆抗体1E10 (人源抗SARS-CoV-2抗体1E10) (antibody, V domains shown)
VH: EVQLVQSGAEVKKPGSSVKVSCKASGGTFSSYAISWVRQAPGQGLEWMGRIIPILGIANYAQKFQGRVTITADKSTSTAYMELSSLRSEDTAVYYCAREVSDFDWLYRSHYGMDVWGQGTTVTVSS
VL: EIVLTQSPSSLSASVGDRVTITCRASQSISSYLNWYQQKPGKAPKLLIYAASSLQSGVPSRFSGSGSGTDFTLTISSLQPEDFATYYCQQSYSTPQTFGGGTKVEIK
Take B1: the half-maximal effective concentration (EC50) amounted to 0.029 nM in test [1] and 0.044 nM in test [2].
